From patent US20250243286A1 (SIXPEAKS BIO, published 2025)
Read-outs that look alike come from different tables or passages of the source.

T1: human ActRIIB (human, UniProt Q13705 19-137, limits assumed)
T1 construct: antigen in MSD-SET; also called ACVR2B; ActR2B
T1 sequence: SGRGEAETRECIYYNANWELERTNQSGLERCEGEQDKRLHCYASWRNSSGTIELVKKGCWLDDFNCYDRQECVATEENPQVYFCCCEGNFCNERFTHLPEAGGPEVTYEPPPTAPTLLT

B1: Antibody Riaba (antibody, V domains shown)
VH: QVQLVQSGAEVKKPGASVKVSCKASGYTFTSSYINWVRQAPGQGLEWMGTINAVSGSTSYAQKFQGRVTMTRDTSISTAYMELSRLRSDDTAVYYCARGGWFDYWGQGTLVTVSS
VL: QSALTQPASVSGSPGQSITISCTGTSSDVGSYNYVNWYQQHPGKAPKLMIYGVSKRDSGVSNRFSGSKSGNTASLTISGLQAEDEADYYCGTFAGGKYYGVFGGGTKLTVL
notes: full-length IgG
B2: Antibody Hefaknöpfla (antibody, V domains shown)
VH: QVQLVQSGAEVKKPGASVKVSCKASGYTFTSSYINWVRQAPGQGLEWMGTINAVSGSTSYAQKFQGRVTMTRDTSISTAYMELSRLRSDDTAVYYCARGGWFDYWGQGTLVTVSS
VL: QSALTQPASVSGSPGQSITISCTGTSSDVGSKNYVNWYQQHPGKAPKLMIYGVSKRESGVSNRFSGSKSGNTASLTISGLQAEDEADYYCGTFAGGKYYGVFGGGTKLTVL
notes: full-length IgG
B3: Duuranad Fab (Fab, V domains shown)
VH: QVQLVQSGAEVKKPGASVKVSCKASGYTFTSSYINWVRQAPGQGLEWMGTINAVSGSTSYAQKFQGRVTMTRDTSISTAYMELSRLRSDDTAVYYCARGGWFDYWGQGTLVTVSS
VL: QSALTQPASVSGSPGQSITISCTGTSSDVGSFNYVNWYQQHPGKAPKLMIRGVSKRESGVSNRFSGSKSGNTASLTISGLQAEDEADYYCGTFAGGAYYGVFGGGTKLTVL
notes: Fab
B4: Soidawürstle Fab (Fab, V domains shown)
VH: QVQLVQSGAEVRKPGSSVKVSCKASGYTFTSSYINWVRQAPGQGLEWMGTINPVSGSTSYAQKFQGRVTITADTSTSTAYMELSSLRSEDTAVYYCARGGWFDYWGQGTLVTVSS
VL: QSALTQPRSVSGSPGQSVTISCTGTSSDVGSYNRVNWYQQHPGKAPKLMIYGVSKRESGVPDRFSGSKSGNTASLTISGLQAEDEADYYCGTFAGGRYYGVFGGGTKLTVL
notes: Fab; also called Soidawüsrstel (Fab)
B5: Riaba Fab (Fab, V domains shown)
VH: QVQLVQSGAEVKKPGASVKVSCKASGYTFTSSYINWVRQAPGQGLEWMGTINAVSGSTSYAQKFQGRVTMTRDTSISTAYMELSRLRSDDTAVYYCARGGWFDYWGQGTLVTVSS
VL: QSALTQPASVSGSPGQSITISCTGTSSDVGSYNYVNWYQQHPGKAPKLMIYGVSKRDSGVSNRFSGSKSGNTASLTISGLQAEDEADYYCGTFAGGKYYGVFGGGTKLTVL
notes: Fab
B6: Schwardamaga Fab (Fab, V domains shown)
VH: QVQLVQSGAEVKKPGSSVKVSCKASGYTFTSSYINWVRQAPGQGLEWMGTINAVSGSTSYAQKFQGRVTITADTSTSTAYMELSSLRSEDTAVYYCARGGWFDYWGQGTLVTVSS
VL: QSALTQPRSVSGSPGQSVTISCTGTSSDVGSANYVNWYQQHPGKAPKPMIYGVSRRPSGVPDRFSGSKSGNTASLTISGLQAEDEADYYCGTFAGGKYYGVFGGGTKLTVL
notes: Fab
B7: Bimagrumab Fab (Fab, V domains shown)
VH: QVQLVQSGAEVKKPGASVKVSCKASGYTFTSSYINWVRQAPGQGLEWMGTINPVSGSTSYAQKFQGRVTMTRDTSISTAYMELSRLRSDDTAVYYCARGGWFDYWGQGTLVTVSS
VL: QSALTQPASVSGSPGQSITISCTGTSSDVGSYNYVNWYQQHPGKAPKLMIYGVSKRPSGVSNRFSGSKSGNTASLTISGLQAEDEADYYCGTFAGGSYYGVFGGGTKLTVL
notes: Fab
B8: Antibody Wurschdsalat (antibody, V domains shown)
VH: QVQLVQSGAEVKKPGASVKVSCKASGYTFTSSYINWVRQAPGQGLEWMGTINAVSGSTSYAQKFQGRVTMTRDESISTAYMELSRLRSDDTAVYYCARGGWFDYWGQGTLVTVSS
VL: QSALTQPASVSGSPGQSITISCTGTSSDVGSYNYVNWYQQHPGKAPKLMIYGVSKRESGVSNRFSGSKSGNTASLTISGLQAEDEADYYCGTFAGGKYYGVFGGGTKLTVL
notes: full-length IgG
B9: Wurschdsalat Fab (Fab, V domains shown)
VH: QVQLVQSGAEVKKPGASVKVSCKASGYTFTSSYINWVRQAPGQGLEWMGTINAVSGSTSYAQKFQGRVTMTRDESISTAYMELSRLRSDDTAVYYCARGGWFDYWGQGTLVTVSS
VL: QSALTQPASVSGSPGQSITISCTGTSSDVGSYNYVNWYQQHPGKAPKLMIYGVSKRESGVSNRFSGSKSGNTASLTISGLQAEDEADYYCGTFAGGKYYGVFGGGTKLTVL
notes: Fab
B10: Antibody Duuranad (antibody, V domains shown)
VH: QVQLVQSGAEVKKPGASVKVSCKASGYTFTSSYINWVRQAPGQGLEWMGTINAVSGSTSYAQKFQGRVTMTRDTSISTAYMELSRLRSDDTAVYYCARGGWFDYWGQGTLVTVSS
VL: QSALTQPASVSGSPGQSITISCTGTSSDVGSFNYVNWYQQHPGKAPKLMIRGVSKRESGVSNRFSGSKSGNTASLTISGLQAEDEADYYCGTFAGGAYYGVFGGGTKLTVL
notes: full-length IgG
B11: Hefaknöpfla Fab (Fab, V domains shown)
VH: QVQLVQSGAEVKKPGASVKVSCKASGYTFTSSYINWVRQAPGQGLEWMGTINAVSGSTSYAQKFQGRVTMTRDTSISTAYMELSRLRSDDTAVYYCARGGWFDYWGQGTLVTVSS
VL: QSALTQPASVSGSPGQSITISCTGTSSDVGSKNYVNWYQQHPGKAPKLMIYGVSKRESGVSNRFSGSKSGNTASLTISGLQAEDEADYYCGTFAGGKYYGVFGGGTKLTVL
notes: Fab

Tests used:
human ActRIIA [1] = target: T2, human ActRIIA (human, UniProt P27037 20-135, limits assumed); assay: MSD-SET
T2 construct: antigen in MSD-SET; also called ACVR2A; ActR2A
T2 sequence (P27037 20-135 limits assumed): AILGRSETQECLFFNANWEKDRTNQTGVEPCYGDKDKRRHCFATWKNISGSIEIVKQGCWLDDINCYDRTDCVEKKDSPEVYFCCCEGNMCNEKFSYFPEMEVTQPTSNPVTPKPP

human ActRIIA [2] = target: T2, human ActRIIA; assay: MSD-SET; remark: listed apart in the source
[3] = target: T3, ActRIIA and ActRIIB (on TGFB/SMAD SBE Reporter HEK293 cells) (human); assay: cell-based or functional assay
[4] = target: T3, ActRIIA and ActRIIB (on TGFB/SMAD SBE …); assay: cell-based or functional assay; remark: listed apart in the source
[5] = target: T3, ActRIIA and ActRIIB (on TGFB/SMAD SBE …); assay: cell-based or functional assay; remark: listed apart in the source
human ActRIIA [6] = target: T2, human ActRIIA; assay: MSD-SET; remark: listed apart in the source
human ActRIIB [7] = target: T1, human ActRIIB; assay: MSD-SET; human ActRIIB; full-length IgG (Table 4B)
human ActRIIA [8] = target: T2, human ActRIIA; assay: MSD-SET; remark: listed apart in the source
[9] = target: T3, ActRIIA and ActRIIB (on TGFB/SMAD SBE …)
human ActRIIB [10] = target: T1, human ActRIIB; assay: MSD-SET; human ActRIIB; full antibody, separate cross-reactivity study (Table 6A)
[11] = target: T3, ActRIIA and ActRIIB (on TGFB/SMAD SBE …); remark: listed apart in the source
human ActRIIB [12] = target: T1, human ActRIIB; assay: MSD-SET; Fab, not IgG
Dog ActRIIA = Dog ActRIIA (dog, UniProt A0A8I3MYH0 20-135); assay: MSD-SET
mouse ActRIIA = mouse ActRIIA (mouse, UniProt P27038 20-135, limits assumed); assay: MSD-SET
mouse ActRIIA, sequence (P27038 20-135 limits assumed): as the sequence (P27037 20-135 limits assumed) above, with K20R, V73I counted along it

human ActRIIB [13] = target: T1, human ActRIIB; assay: MSD-SET
Pig ActRIIA = Pig ActRIIA (pig, UniProt F1S0H6 20-135); assay: MSD-SET
human ActRIIB [14] = target: T1, human ActRIIB; assay: MSD-SET, preliminary
human ActRIIB [15] = target: T1, human ActRIIB; assay: MSD-SET; remark: listed apart in the source
human ActRIIB [16] = target: T1, human ActRIIB; assay: MSD-SET, Fab KD over IgG KD

Binder	Kd (human ActRIIA [1])	Kd (human ActRIIA [2])	IC50, Activin SMAD RGA [3]	IC50, Myostatin SMAD RGA [3]	IC90, Activin SMAD RGA [3]	IC90, Myostatin SMAD RGA [3]	IC50, Activin SMAD RGA [5]	IC50, Myostatin SMAD RGA [5]	Kd (human ActRIIB [7])	Kd (human ActRIIB [12])	IC50 fold difference (Fab:IgG), Activin SMAD RGA [5]	IC50 fold difference (Fab:IgG), Myostatin SMAD RGA [5]	also measured
B1	0.014 nM	0.014 nM	0.134 nM	0.263 nM	2.14 nM	2.18 nM	0.14 nM	0.33 nM	4 pM	–	–	–	IC50 [nM] (assay not given) [4]: 0.0371 nM; IC50 fold difference to bimagrumab (assay not given) [4]: 7.96 fold; IC90 [nM] (assay not given) [4]: 1.6 nM; IC90 fold difference to bimagrumab (assay not given) [4]: 4.11 fold; Fold Difference to bimagrumab (human ActRIIA [6]): 10 fold; Kd (human ActRIIA [6]): 0.014 nM
B2	0.015 nM	0.015 nM	0.139 nM	0.211 nM	2.16 nM	5.37 nM	0.13 nM	0.26 nM	5 pM	–	–	–	Kd (human ActRIIA [8]): 0.0123 nM; IC50 (read off the curve); Myostatin-stimulated SMAD reporter gene assay [9]: 0.3 nM; IC50 [nM] (assay not given) [4]: 0.011 nM; IC50 fold difference to bimagrumab (assay not given) [4]: 27 fold; IC90 [nM] (assay not given) [4]: 1.6 nM; IC90 fold difference to bimagrumab (assay not given) [4]: 4.11 fold; Kd (human ActRIIB [10]): 4.3 pM; IC50 (read off the curve); Activin-stimulated SMAD reporter gene assay [11]: 0.2 nM; Kd (human ActRIIA [6]): 0.015 nM
B3	–	0.047 nM	–	–	–	–	6.19 nM	7.85 nM	–	0.36 nM	20.5 fold	20.2 fold	–
B4	–	–	–	–	–	–	–	–	–	–	–	–	Kd (Dog ActRIIA): 0.028 nM; Kd (mouse ActRIIA): 0.04 nM; Kd (human ActRIIB [13]): 0.011 nM; Kd (Pig ActRIIA): 0.022 nM; Kd (human ActRIIB [14]): 0.0197 nM; Kd (human ActRIIB [15]): 2.6 pM
B5	–	–	–	–	–	–	27.9 nM	64.6 nM	–	1.57 nM	196 fold	199 fold	Fold difference (Fab:IgG) (human ActRIIB [16]): 369 fold
B6	–	–	–	–	–	–	–	–	–	–	–	–	Kd (Dog ActRIIA): 0.044 nM; Kd (mouse ActRIIA): 0.039 nM; Kd (human ActRIIB [13]): 0.01 nM; Kd (Pig ActRIIA): 0.029 nM; Kd (human ActRIIB [14]): 0.0726 nM; Kd (human ActRIIB [15]): 13.8 pM
B7	–	–	–	–	–	–	4.39 nM	6.87 nM	–	–	–	–	Kd (Dog ActRIIA): 0.354 nM; Kd (mouse ActRIIA): 0.239 nM; Kd (Pig ActRIIA): 0.188 nM
B8	0.005 nM	0.005 nM	0.266 nM	0.4 nM	1.9 nM	3.89 nM	0.29 nM	0.33 nM	6 pM	–	–	–	Kd (human ActRIIA [8]): 0.0218 nM; Kd (human ActRIIB [10]): 4.4 pM
B9	–	0.125 nM	–	–	–	–	9.9 nM	13.4 nM	–	0.823 nM	33.8 fold	40.7 fold	–
B10	0.009 nM	0.009 nM	0.272 nM	0.432 nM	2.22 nM	4.45 nM	0.3 nM	0.39 nM	5 pM	–	–	–	Kd (human ActRIIA [8]): 0.0212 nM; Kd (human ActRIIB [10]): 5.4 pM
B11	–	0.091 nM	–	–	–	–	4.06 nM	3.7 nM	–	0.228 nM	31.5 fold	14.2 fold	–
